Assay results from patent US20150210761A1 (SAMSUNG ELECTRONICS, published 2015).
Where a chain is given by its changes, count along the chain named.

T1: mouse Ang2 (Accession # NP-031452) (R&D Systems) (mouse, UniProt O35608 19-496)
T1 construct: Bought protein coated on the ELISA plate; also called mAng2
T1 sequence (looked up): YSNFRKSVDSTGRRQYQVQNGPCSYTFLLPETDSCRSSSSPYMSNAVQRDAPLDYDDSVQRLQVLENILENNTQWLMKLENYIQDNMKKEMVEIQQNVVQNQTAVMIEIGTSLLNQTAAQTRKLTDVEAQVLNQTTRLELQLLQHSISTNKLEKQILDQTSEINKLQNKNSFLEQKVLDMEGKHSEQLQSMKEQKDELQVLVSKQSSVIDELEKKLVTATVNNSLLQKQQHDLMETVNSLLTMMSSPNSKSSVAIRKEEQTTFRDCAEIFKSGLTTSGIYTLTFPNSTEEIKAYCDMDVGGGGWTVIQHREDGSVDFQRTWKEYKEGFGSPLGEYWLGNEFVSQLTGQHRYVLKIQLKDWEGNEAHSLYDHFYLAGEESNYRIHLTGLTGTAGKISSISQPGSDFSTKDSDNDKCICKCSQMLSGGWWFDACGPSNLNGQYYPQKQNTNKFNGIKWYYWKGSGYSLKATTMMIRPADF

T2: Ang2 mutant I434 (full-length Ang2) (human, UniProt O15123 19-496, limits assumed)
T2 sequence: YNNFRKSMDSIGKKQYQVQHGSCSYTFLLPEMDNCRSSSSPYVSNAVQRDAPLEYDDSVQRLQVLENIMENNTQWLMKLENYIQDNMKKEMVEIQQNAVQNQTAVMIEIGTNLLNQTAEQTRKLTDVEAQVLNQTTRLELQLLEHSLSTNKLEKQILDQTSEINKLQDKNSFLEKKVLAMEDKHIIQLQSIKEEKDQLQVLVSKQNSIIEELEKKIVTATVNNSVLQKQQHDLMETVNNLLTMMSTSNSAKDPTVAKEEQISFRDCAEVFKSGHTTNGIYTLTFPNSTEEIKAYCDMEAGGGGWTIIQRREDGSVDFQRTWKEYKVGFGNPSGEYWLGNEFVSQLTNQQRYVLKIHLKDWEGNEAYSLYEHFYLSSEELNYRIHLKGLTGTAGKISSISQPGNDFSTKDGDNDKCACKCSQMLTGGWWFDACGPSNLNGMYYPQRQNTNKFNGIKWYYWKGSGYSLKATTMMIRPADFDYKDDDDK

T3: Ang2 mutant K468 (full-length Ang2) (human, UniProt O15123 19-496, limits assumed)
T3 sequence: T2 sequence with A416I, K450A

T4: Ang2 mutant F469 (full-length Ang2) (human, UniProt O15123 19-496, limits assumed)
T4 sequence: T2 sequence with A416I, F451A

B1: SAIT-ANG2-AB-m1A10 (antibody, V domains shown)
VH: QVQLQQSGAELMKPGASVKISCKATDYTFSSYWLEWLIQRPGHGLEWIGEILPGSGSTNYNEKFRGKATFTEDTSSNTAYMQLSSLTSEDSAVYYCARGNHNSYYYAMDYWGQGTSVTVSS
VL: DIVLTQSPASLAVSLGQRATISCRASESVDSYGNSFMHWYQQKPGQPPKLLIYRASNLDSGIPARFSGSGSRTDFTLTINPVEADDVATYYCQQSNEDPLTFGAGTKLELK
notes: also called hybridoma KCLRF-BP-00306
B2: SAIT-ANG2-AB-m8D3 (antibody, V domains shown)
VH: EVQLQQSGPELVKPGDSVKMSCKASGYTFTDYYMKWVRQSHGKSLQWVGEINPKNGDTFYNQIFKGKATLTVDKSSSTAYMQLTSLTSEDSAVYYCTRENDYDVGFFDYWGQGTSVTVSS
VL: TIVMTQTPKFLLVSAGDRITITCKASQSVSNDVAWYQQKPGQSPKLLIYYASNRYPGVPDRFTGSGYGTDFTFTISTVQAEDLAVYFCQQDYTSPWTFGGGTELEIK
notes: also called hybridoma KCLRF-BP-00308

Experiments:
[1] = biological target: T1, mouse Ang2 (Accession # NP-031452) (R&D …); assay: ELISA on coated mouse Ang2
[2] = biological target: T2, Ang2 mutant I434 (full-length Ang2); assay: ELISA; antibody coated, FLAG-tagged full-length Ang2 mutant, anti-FLAG-HRP detection
Description: (§1) A 96-well MaxiSorp™ flat-bottom plate (Nunc) was coated with 50 μl of each anti-Ang2 antibody (400 nM). After that, the plate was washed five times with 0.05% (v/v) Tween-20-containing PBS (PBST) and then blocked with 1% (v/v) BSA-containing PBS at a room temperature for 2 hours. S417, P419, N421, I434, D448, A449, P452, Y460, N467, K468, or F469 residue of Ang2 (SEQ ID NO: 27) was mutated (substituted) with alanine and tagged with FLAG (N-[…]-C; 1012 Da) and then 250 ng of them was each added to each well to the plate, which was allowed to react at a room temperature for 2 hours.
(§2) Thereafter, the plate was washed five times with 0.05% (v/v) Tween-20-containing PBS and then, an HRP-conjugated anti-FLAG antibody (SIGMA) diluted in 1% (v/v) BSA-containing PBS at 1:5,000 ratio (v/v) was added in the amount of 50 μl to each well to react at a room temperature for 1 hour, followed by washing five times with 0.1% (v/v) Tween-20-containing PBS.
(§3) Finally, 100 μl of TMB substrate (cell signal) was added to each well of the plate to induce color development for 3 minutes and then, the reaction was ceased by the addition of 100 μl of stop solution (Cell signaling) and OD450 values were measured on a plate reader (Molecular Devices). By comparing binding intensity to mutated Ang2 to binding intensity to non-mutated (native) Ang2, each epitope for the Ang2 antibodies was identified.

[3] = biological target: T3, Ang2 mutant K468 (full-length Ang2); assay: as above
Description: as §1, §2, §3

[4] = biological target: T4, Ang2 mutant F469 (full-length Ang2); assay: as above
Description: as §1, §2, §3

| Binder | binding result [1] | Binding (%) (mutant Ang2 / native Ang2) [2] | Binding (%) (mutant Ang2 / native Ang2) [3] | Binding (%) (mutant Ang2 / native Ang2) [4] |
| --- | --- | --- | --- | --- |
| B1 | no binding |  |  |  |
| B2 |  | 137% | 20.5% | 41.9% |
